pKd: −log10 of the molar value. Values joined by “and” are separate entries in the source; they are usually repeats but may differ in a detail not shown here. Equal entries are not always repeated. Where two headings read alike, the source gives them in different places.
Tests used:
Mcl-1 [1] = target: T1, Mcl-1 (Homo sapiens, UniProt Q07820); details: cited from earlier work
T1 construct: myc-Mcl-1 SPOT array & FP; made in house
Description: Negative control mutatio ...

Mcl-1 [2] = target: T1, Mcl-1; assay: LUMIER full-length protein interaction; type: binding; details: LUMIER results for Mcl-1, Z-score relative to Gaussian fit of the data; for z-score 2.1: experiment 2, duplicate 1; for z-score 2.2: experiment 2, duplicate 2; for z-score 1.2: experiment 1, duplicate 2
Method: (§1) The LUMIER assay was carried out as previously described with the following modifications. A stable cell line expressing receptor tagged on the N-terminus with Nanoluc luciferase was created (the prey). […] Each bait construct was transfected into the receptor-luciferase cells in a 96-well format and after 48 hours the cells were lysed and transferred to 384-well plates coated with anti-FLAG. After incubation and washing, luminescence was measured to quantify how much receptor-luciferase was captured by the bait protein. Anti-Flag ELISA signal was used to exclude bait proteins that were not expressed. The experiment was carried out two times, each in duplicate.

Bcl-xL = target: T2, Bcl-xL (Homo sapiens, UniProt Q07817); assay: LUMIER full-length protein interaction; type: binding; details: LUMIER results for Bcl-xL, Z-score relative to Gaussian fit of the data; for z-score 2.2: experiment 2, duplicate 2; for z-score 1.1: experiment 1, duplicate 1; for z-score 1.2: experiment 1, duplicate 2; for z-score 2.1: experiment 2, duplicate 1
T2 construct: myc-Bcl-xL SPOT array & FP; made in house
Method: as §1

[3] = read-out: Binder class, Mcl-1, natural BH3 peptides, interactions taken from literature
[4] = read-out: KD, Mcl-1, previously reported
[5] = read-out: Binder class, Mcl-1, S1 Bim variants, specific binding measured using yeast display, ref Dutta et al. (2010)

T2 sequence (Q07817 with tags, fused parts or gaps): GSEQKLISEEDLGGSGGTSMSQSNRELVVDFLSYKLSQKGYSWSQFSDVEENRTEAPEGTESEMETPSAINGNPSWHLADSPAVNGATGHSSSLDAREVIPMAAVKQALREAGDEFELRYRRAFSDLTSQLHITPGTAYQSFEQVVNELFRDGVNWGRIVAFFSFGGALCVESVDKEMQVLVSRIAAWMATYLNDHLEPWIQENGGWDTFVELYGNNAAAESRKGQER
T1 sequence (Q07820 with tags, fused parts or gaps): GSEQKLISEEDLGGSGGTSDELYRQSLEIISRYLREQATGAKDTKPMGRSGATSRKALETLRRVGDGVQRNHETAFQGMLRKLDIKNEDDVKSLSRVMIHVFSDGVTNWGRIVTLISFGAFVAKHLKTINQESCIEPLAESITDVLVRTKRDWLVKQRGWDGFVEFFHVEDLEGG

AAQLTAARLKALGDELHQRTMWR [Hrk]
pKd (Mcl-1 [1]; [3]): < 5.00

AAQRYGRELRRMSDEFVDSFKKG (LWAAQRYGRELRRMSDEFVDSFKKGL) [Bad]
pKd (Mcl-1 [1]; [3]): > 6.00 | pKd (Mcl-1 [1]; [4]): < 5.60

AEVQIARKLQCIADQFHRLHVQQ (HQAEVQIARKLQCIADQFHRLHVQQH) [Bmf]
pKd (Mcl-1 [1]; [3]): < 5.00

EGEKEVEALKKSADWVSDWSSRP (VVEGEKEVEALKKSADWVSDWSSRPE) [BNIP3L]
pKd (Mcl-1 [1]; [3]): < 5.00 | pKd (Mcl-1 [1]; [4]): < 5.60

IIRNIARHLAQVGDSMDRSIPPG (EDIIRNIARHLAQVGDSMDRSIPPGL) [Bid]
pKd (Mcl-1 [1]; [3]): > 6.00

ISOC1 (AGYELLIQKFLSLYGDQIDMHRKFVV)
z-score 2.1 (Mcl-1 [2]): 1.04 and 0.6675 | z-score 2.2 (Mcl-1 [2]): 0.5198 and 0.4144 | z-score 2.2 (Bcl-xL): 0.4271 and 0.3646

LEVECATQLRRFGDKLNFRQKLL (AELEVECATQLRRFGDKLNFRQKLLN) [Noxa]
pKd (Mcl-1 [1]; [3]): < 5.00

MAPT
z-score 1.2 (Mcl-1 [2]): 0.1627 | z-score 2.2 (Mcl-1 [2]): 0.6441 | z-score 1.1 (Bcl-xL): 0.3413 | z-score 1.2 (Bcl-xL): 1.938 | z-score 2.1 (Bcl-xL): 0.8331

MTQEVGQLLQDMGDDVYQQYRSL (GVMTQEVGQLLQDMGDDVYQQYRSLT) [Mule]
pKd (Mcl-1 [1]; [3]): < 5.00

NOL8 (KYDPSKYCHNLKKIGEDFSNTIPISS)
z-score 1.2 (Mcl-1 [2]): 0.3257 | z-score 2.1 (Mcl-1 [2]): 2.02 | z-score 2.2 (Mcl-1 [2]): 1.79 | z-score 1.1 (Bcl-xL): 1.001 | z-score 1.2 (Bcl-xL): -1.268 | z-score 2.1 (Bcl-xL): 4.4 | z-score 2.2 (Bcl-xL): 3.656

NRN1L (DTIYQGFAECLIRLGDSMGRGGELET)
z-score 1.2 (Mcl-1 [2]): 1.162 | z-score 2.1 (Mcl-1 [2]): 0.005652 | z-score 2.2 (Mcl-1 [2]): 1.343 | z-score 1.1 (Bcl-xL): -0.79 | z-score 1.2 (Bcl-xL): -2.494 | z-score 2.1 (Bcl-xL): 0.3656 | z-score 2.2 (Bcl-xL): 0.03743

P2RX7 (QCPIFRLGDIFRETGDNFSDVAIQGG)
z-score 1.2 (Mcl-1 [2]): -0.04596 | z-score 2.1 (Mcl-1 [2]): -0.1664 | z-score 2.2 (Mcl-1 [2]): -0.3437 | z-score 1.1 (Bcl-xL): 0.2486 | z-score 1.2 (Bcl-xL): -0.6775 | z-score 2.1 (Bcl-xL): 0.2039 | z-score 2.2 (Bcl-xL): -0.7989

PCNXL2 (LLDFFMVSILFSKLGDLLHKLQFVLT)
z-score 1.2 (Mcl-1 [2]): -1.056 | z-score 2.1 (Mcl-1 [2]): 0.4915 | z-score 2.2 (Mcl-1 [2]): -0.3857 | z-score 1.1 (Bcl-xL): -0.7258 | z-score 1.2 (Bcl-xL): 0.8817 | z-score 2.1 (Bcl-xL): 0.72 | z-score 2.2 (Bcl-xL): 1.005

PEIWAAQEIRRIGDENNAYYARR
pKd (Mcl-1 [1]; [5]): > 6.00

PEIWAAQEIRRIGDESNAYYARR
pKd (Mcl-1 [1]; [5]): > 6.00

PEIWDAQELGRIGDEVNAYYARR
pKd (Mcl-1 [1]; [5]): > 6.00

PEIWFAQEARRYGDEFNAYYARR
pKd (Mcl-1 [1]; [5]): < 5.00

PEIWFAQEFSRIGDEVNAYYARR
pKd (Mcl-1 [1]; [5]): > 6.00

PEIWFAQEIDRIGDEVNAYYARR
pKd (Mcl-1 [1]; [5]): > 6.00

PEIWFAQEIERIGDEVNAYYARR
pKd (Mcl-1 [1]; [5]): > 6.00

PEIWFAQEIRRDGDEFNAYYARR
pKd (Mcl-1 [1]; [5]): < 5.00

PEIWFAQELKRFGDEANAYYARR
pKd (Mcl-1 [1]; [5]): < 5.00

PEIWFAQELKRNGDEYNAYYARR
pKd (Mcl-1 [1]; [5]): < 5.00

PEIWFAQELRRDGDEFNAYYARR
pKd (Mcl-1 [1]; [5]): < 5.00

PEIWFAQELRRDGDEYNAYYARR
pKd (Mcl-1 [1]; [5]): < 5.00

PEIWFAQELSRNGDEFNAYYARR
pKd (Mcl-1 [1]; [5]): < 5.00

PEIWFAQELSRYGEEYNAYYARR
pKd (Mcl-1 [1]; [5]): < 5.00

PEIWFAQEVGRIGDEINAYYARR
pKd (Mcl-1 [1]; [5]): > 6.00

PEIWFAQEVGRIGDEVNAYYARR
pKd (Mcl-1 [1]; [5]): > 6.00

PEIWFAQEVNRIGDEVNAYYARR
pKd (Mcl-1 [1]; [5]): < 5.00

Reference: publication PMC4072508, “Genome-Wide Prediction and Validation of Peptides That Bind Human Prosurvival Bcl-2 Proteins” (PLoS Computational Biology, 2014)
